Source: patent US9724381B2 (THE ADMINISTRATORS OF THE TULANE EDUCATIONAL FUND, priority 2009, dated 2017)
Where no end group is shown, it is not given here. [ ]: non-standard residue; d: D form. The star is where a group is joined. Desaminotyrosyl = O=C(CCc1ccc(O)cc1)*; dCha = N[C@H](CC1CCCCC1)C(=O)O; Aib = CC(C)(N)C(=O)O

Columns and labels:
[1] = molecular target: T1, Ghrelin/GHRP/GHS Receptor (Rattus norvegicus, UniProt O08725); experiment: In vitro GH release from isolated pituitary glands, pituitary incubation method; format: cell-based; details: Table 1
Procedure: Hormonal activities were obtained from in vitro studies using pituitaries of 20 day old CD-1 strain Sprague Dawley female rats. Two pituitaries were incubated for a total of 4-6 hours. Medium was removed each hour for RIA of GH level and fresh medium was added again. After two one hour preincubation periods (P1-P2), the vehicle/peptides were added to two one hour incubations (I3-I4). Peptide activity was calculated as the change in the hormonal level (delta) between I3+I4 and P2. For antagonist activity, the incubation was continued for 2 additional hours (I5-I6) where both the peptide and a stimulator of GH secretion was added and the antagonist activity was calculated as the change in the hormonal level (delta) between I5+I6 and P2. The peptides were assayed in triplicate and the hormone was assayed in duplicate. Each value recorded represents the mean of 6. The GH RIA reagents were distributed by the NIH. Control data was collected from isolated pituitary glands treated with only the corresponding vehicle in the absence of peptide or stimulator. Control stimulated data was collected from isolated pituitary glands treated with stimulator alone in the absence of any peptide.

[2] = molecular target: T1, Ghrelin/GHRP/GHS Receptor; experiment: In vitro GH release from cell culture of pituitary cells; format: cell-based; parameters: After dispersion, the cells were collected by centrifugation, wash with DMEM and placed into culture well; endogenous in cells; host or cells: dispersed primary rat anterior pituitary cells; details: Table 8
Procedure: In vitro GH Release-Female rats of the CD-1 strain were housed in a constant temperature room at 24° C. with 14 h light and 10 h darkness. The rats were fed Purina Rat chow and water at libitum. All studies were started between 0800-1000 hours. Pituitaries of mature female Sprague Dawley rats were rapidly removed after decapitation, neurointermediate lobe discarded and then placed in a pH 7.4 buffer. The pituitaries were cut into ˜3-mm pieces and then transferred to a flask containing HEPS buffer with trypsin and incubated at 37° C. Cells were triturated several times during this period. After dispersion, the cells were collected by centrifugation, wash with DMEM and placed into culture well. Cell cultures were maintained for 4 days at 37° with 8% CO2 added to the incubator atmosphere. After 4 days in culture, cells were washed with lactated Ringer's solution adjusted to pH 7.2-7.4 and then vehicle, peptide alone or peptide plus stimulator was added to media. Incubation time was 60-120 minutes after which media was removed from each well for GH determination. The GH RIA reagents were distributed by the NIH. Control data was collected from cell cultures treated with only the corresponding vehicle in the absence of peptide or stimulator. Control stimulated data was collected from cell cultures treated with stimulator alone in the absence of any peptide.

[3] = peptide antagonist 0.3 μg/ml + stimulator His-DTrp-Ala-Trp-DPhe-Lys-NH2 10 ng/ml
[4] = peptide antagonist 10 μg/ml + stimulator His-DTrp-Ala-Trp-DPhe-Lys-NH2 10 ng/ml
[5] = peptide antagonist 30 μg/ml + stimulator His-DTrp-Ala-Trp-DPhe-Lys-NH2 10 ng/ml
[6] = peptide antagonist 3 μg/ml + stimulator His-DTrp-Ala-Trp-DPhe-Lys-NH2 10 ng/ml
[7] = peptide antagonist 1 μg/ml + stimulator His-DTrp-Ala-Trp-DPhe-Lys-NH2 10 ng/ml
[8] = peptide antagonist dosage 3 (head prints μg/i.v.)
[9] = peptide antagonist dosage 10 (head prints μg/i.v.)
[10] = peptide antagonist dosage 30 (head prints μg/i.v.)
[11] = peptide antagonist dosage 100 (head prints μg/i.v.)
[12] = peptide antagonist dosage 1 (head prints μg/i.v.)

T1 sequence (O08725 whole entry): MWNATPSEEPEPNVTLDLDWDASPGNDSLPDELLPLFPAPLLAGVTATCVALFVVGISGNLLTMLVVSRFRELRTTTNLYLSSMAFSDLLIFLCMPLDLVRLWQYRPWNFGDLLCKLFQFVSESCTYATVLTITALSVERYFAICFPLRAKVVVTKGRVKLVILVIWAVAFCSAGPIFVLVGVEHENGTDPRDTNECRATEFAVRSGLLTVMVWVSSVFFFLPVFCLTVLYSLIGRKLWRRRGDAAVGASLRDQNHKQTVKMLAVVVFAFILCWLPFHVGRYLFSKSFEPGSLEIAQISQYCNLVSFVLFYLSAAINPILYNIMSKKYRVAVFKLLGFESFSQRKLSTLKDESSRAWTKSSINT

Substance | Change in stimulated GH release versus preincubation (delta) [1, 3] | Change in stimulated GH release versus preincubation (delta) [1, 4] | Change in stimulated GH release versus preincubation (delta) [1, 5] | Change in stimulated GH release versus preincubation (delta) [1, 6] | Unstimulated Basal GH release from cell cultures of pituitary cells [2, 8] | Unstimulated Basal GH release from cell cultures of pituitary cells [2, 9] | Unstimulated Basal GH release from cell cultures of pituitary cells [2, 10] | further results
Tyr-DTrp-DTrp-Phe-Phe-NH2 (Y[dW][dW]FF-NH2; N-terminus assumed; SMILES NC(=O)[C@H](Cc1ccccc1)NC(=O)[C@H](Cc1ccccc1)NC(=O)[C@@H](Cc1c[nH]c2ccccc12)NC(=O)[C@@H](Cc1c[nH]c2ccccc12)NC(=O)[C@@H](N)Cc1ccc(O)cc1) | 1274 ± 329 ng/mL | 1034 ± 182 ng/mL | -167 ± 157 ng/mL | – | – | – | – | –
DesaminoTyr-DTrp-Ala-Trp-DPhe-NH2 ([Desaminotyrosyl][dW]AW[dF]-NH2; SMILES C[C@H](NC(=O)[C@@H](Cc1c[nH]c2ccccc12)NC(=O)CCc1ccc(O)cc1)C(=O)N[C@@H](Cc1c[nH]c2ccccc12)C(=O)N[C@H](Cc1ccccc1)C(N)=O) | – | – | -959 ± 75 ng/mL | 1302 ± 269 ng/mL | – | – | – | –
His-DTrp-DLys-Trp-DPhe-NH2 (H[dW][dK]W[dF]-NH2; N-terminus assumed; SMILES NCCCC[C@@H](NC(=O)[C@@H](Cc1c[nH]c2ccccc12)NC(=O)[C@@H](N)Cc1c[nH]cn1)C(=O)N[C@@H](Cc1c[nH]c2ccccc12)C(=O)N[C@H](Cc1ccccc1)C(N)=O) | 1765 ± 160 ng/mL | – | 91 ± 103 ng/mL | 949 ± 178 ng/mL | – | – | – | –
DesaminoTyr-DTrp-DLys-Trp-DPhe-NH2 ([Desaminotyrosyl][dW][dK]W[dF]-NH2; SMILES NCCCC[C@@H](NC(=O)[C@@H](Cc1c[nH]c2ccccc12)NC(=O)CCc1ccc(O)cc1)C(=O)N[C@@H](Cc1c[nH]c2ccccc12)C(=O)N[C@H](Cc1ccccc1)C(N)=O) | 2404 ± 802 ng/mL | -1068 ± 318 ng/mL | -576 ± 110 ng/mL | -466 ± 432 ng/mL | – | – | – | Change in stimulated GH release versus preincubation (delta) ([1]; peptide antagonist 0.1 μg/ml + stimulator His-DTrp-Ala-Trp-DPhe-Lys-NH2 10 ng/ml): 4297 ± 1061 ng/mL; Change in stimulated GH release versus preincubation (delta) [1, 7]: 688 ± 327 ng/mL
His-DTrp-DLys-Trp-DPhe-Lys-NH2 (H[dW][dK]W[dF]K-NH2; N-terminus assumed; SMILES NCCCC[C@H](NC(=O)[C@@H](Cc1ccccc1)NC(=O)[C@H](Cc1c[nH]c2ccccc12)NC(=O)[C@@H](CCCCN)NC(=O)[C@@H](Cc1c[nH]c2ccccc12)NC(=O)[C@@H](N)Cc1c[nH]cn1)C(N)=O) | 952 ± 200 ng/mL | -83 ± 132 ng/mL | -175 ± 59 ng/mL | 134 ± 91 ng/mL | – | – | – | Change in stimulated GH release versus preincubation (delta) [1, 7]: 324 ± 181 ng/mL
DeaminoTyr-DTrp-Ser-Trp-DPhe-Lys-NH2 ([Desaminotyrosyl][dW]SW[dF]K-NH2; SMILES NCCCC[C@H](NC(=O)[C@@H](Cc1ccccc1)NC(=O)[C@H](Cc1c[nH]c2ccccc12)NC(=O)[C@H](CO)NC(=O)[C@@H](Cc1c[nH]c2ccccc12)NC(=O)CCc1ccc(O)cc1)C(N)=O) | – | 3325 ± 391 ng/mL | 3810 ± 621 ng/mL | – | – | – | – | –
Arg-DTrp-Leu-Tyr-Trp-Pro(cyclic Arg-Pro) | – | – | – | – | 1480 ± 19 ng/mL | 802 ± 26 ng/mL | 601 ± 16 ng/mL | Unstimulated Basal GH release from cell cultures of pituitary cells [2, 11]: 509 ± 49 ng/mL
His-DTrp-DArg-Trp-DPhe-NH2 (chain 1 H[dW][dR]W[dF]-NH2; chain 2 H[dW][dR]W[dF]-NH2; not fully specified; printed as His-DTrp-DArg-Trp-DPhe-NH2) | – | -125 ± 101 ng/mL | -122 ± 44 ng/mL | 341 ± 222 ng/mL | – | – | – | –
αAib-DTrp-DcyclohexylAla-NH2 ([Aib]-[dW]-[dCha]-NH2; N-terminus assumed; SMILES CC(C)(N)C(=O)N[C@H](Cc1c[nH]c2ccccc12)C(=O)N[C@H](CC1CCCCC1)C(N)=O) | – | – | – | – | 826 ± 32 ng/mL | 602 ± 53 ng/mL | 492 ± 11 ng/mL | Unstimulated Basal GH release from cell cultures of pituitary cells [2, 12]: 980 ± 44 ng/mL
Tyr-DTrp-Lys-Trp-DPhe-NH2 (Y[dW]KW[dF]-NH2; N-terminus assumed; SMILES NCCCC[C@H](NC(=O)[C@@H](Cc1c[nH]c2ccccc12)NC(=O)[C@@H](N)Cc1ccc(O)cc1)C(=O)N[C@@H](Cc1c[nH]c2ccccc12)C(=O)N[C@H](Cc1ccccc1)C(N)=O) | – | – | – | – | – | – | – | Change in stimulated GH release versus preincubation (delta) ([1]; peptide antagonist 100 μg/ml + stimulator His-DTrp-Ala-Trp-DPhe-Lys-NH2 10 ng/ml): -555 ± 121 ng/mL
His-DTrp-DTrp-Lys-NH2 (H[dW][dW]K-NH2; N-terminus assumed; SMILES NCCCC[C@H](NC(=O)[C@@H](Cc1c[nH]c2ccccc12)NC(=O)[C@@H](Cc1c[nH]c2ccccc12)NC(=O)[C@@H](N)Cc1c[nH]cn1)C(N)=O) | – | – | – | – | 1124 ± 37 ng/mL | 749 ± 10 ng/mL | 615 ± 41 ng/mL | –
DPhe-Ala-Phe-DPhe-Lys-NH2 ([dF]AF[dF]K-NH2; N-terminus assumed; SMILES C[C@H](NC(=O)[C@H](N)Cc1ccccc1)C(=O)N[C@@H](Cc1ccccc1)C(=O)N[C@H](Cc1ccccc1)C(=O)N[C@@H](CCCCN)C(N)=O) | – | – | – | – | – | 267 ± 27 ng/mL | 276 ± 65 ng/mL | Unstimulated Basal GH release from cell cultures of pituitary cells [2, 11]: 360 ± 84 ng/mL
His-DTrp-DTrp-Phe-Met-NH2 (H[dW][dW]FM-NH2; N-terminus assumed; SMILES CSCC[C@H](NC(=O)[C@H](Cc1ccccc1)NC(=O)[C@@H](Cc1c[nH]c2ccccc12)NC(=O)[C@@H](Cc1c[nH]c2ccccc12)NC(=O)[C@@H](N)Cc1c[nH]cn1)C(N)=O) | 1542 ± 523 ng/mL | 287 ± 68 ng/mL | -319 ± 95 ng/mL | 445 ± 188 ng/mL | – | – | – | Change in stimulated GH release versus preincubation (delta) [1, 7]: 323 ± 69 ng/mL
DesaminoTyr-DTrp-Ser-Trp-DPhe-NH2 ([Desaminotyrosyl][dW]SW[dF]-NH2; SMILES NC(=O)[C@@H](Cc1ccccc1)NC(=O)[C@H](Cc1c[nH]c2ccccc12)NC(=O)[C@H](CO)NC(=O)[C@@H](Cc1c[nH]c2ccccc12)NC(=O)CCc1ccc(O)cc1) | – | 3119 ± 488 ng/mL | 3258 ± 682 ng/mL | – | – | – | – | –
DLys-Tyr-DTrp-DTrp-Phe-NH2 ([dK]Y[dW][dW]F-NH2; N-terminus assumed; SMILES NCCCC[C@@H](N)C(=O)N[C@@H](Cc1ccc(O)cc1)C(=O)N[C@H](Cc1c[nH]c2ccccc12)C(=O)N[C@H](Cc1c[nH]c2ccccc12)C(=O)N[C@@H](Cc1ccccc1)C(N)=O) | – | – | – | – | 1175 ± 77 ng/mL | 1129 ± 6 ng/mL | 744 ± 44 ng/mL | Unstimulated Basal GH release from cell cultures of pituitary cells [2, 12]: 1451 ± 19 ng/mL
Ac-DβNal-DTrp-NH2 | – | – | – | – | 1264 ± 2 ng/mL | 980 ± 72 ng/mL | 699 ± 7 ng/mL | –
